Source: FireProtDB (doi:10.1021/bi00458a027)
Where “and” joins values, the source holds several entries; their conditions need not be identical. Equal entries are not always repeated.

B1: Tryptophan synthase alpha chain, P0A877 (parent)
chain: MERYESLFAQLKERKEGAFVPFVTLGDPGIEQSLKIIDTLIEAGADALELGIPFSDPLADGPTIQNATLRAFAAGVTPAQCFEMLALIRQKHPTIPIGLLMYANLVFNKGIDEFYAQCEKVGVDSVLVADVPVEESAPFRQAALRHNVAPIFICPPNADDDLLRQIASYGRGYTYLLSRAGVTGAENRAALPLNHLVAKLKEYNAAPPLQGFGISAPDQVKAAIDAGAAGAISGSAIVKIIEQHINEPEKMLAALKVFVQPMKAATRS

Variants of: B1
Details: Escherichia coli (strain K12), pH 7.8, Urea, CD, Potassium phosphate 10 mM, structure 1WQ5, whole UniProt chain shown

Variant | ddG of mutation (higher = less stable) (25 °C) | denaturant m value (25 °C) | denaturant midpoint (higher = more stable) (25 °C) | unfolding free energy (25 °C) | denaturant m value (4 °C) | denaturant midpoint (higher = more stable) (4 °C)
MERYESLFAQLKERKEGAFVPFVTLGDPGIEQSLKIIDTLIEAGADALELGIPFSDPLADGPTIQNATLRAFAAGVTPAQCFEMLALIRQKHPTIPIGLLMYANLVFNKGIDEFYAQCEKVGVDSVLVADVPVEESAPFRQAALRHNVAPIFICPPNADDDLLRQIASYGRGYTYLLSRAGVTGAENRAALPLNHLVAKLKEYNAAPPLQSFGISAPDQVKAAIDAGAAGAISGSAIVKIIEQHINEPEKMLAALKVFVQPMKAATRS [G211S] | -0.2 kcal/mol | 2.4 kcal/mol/M and 1.3 kcal/mol/M | 2.46 M and 3.97 M | 5.9 kcal/mol and 5.2 kcal/mol | – | –
MERYESLFAQLKERKEGAFVPFVTLGDPGIEQSLKIIDTLIEAGADALELGIPFSDPLADGPTIQNATLRAFAAGVTPAQCFEMLALIRQKHPTIPIGLLMYANLVFNKGIDEFYAQCEKVGVDSVLVADVPVEESAPFRQAALRHNVAPIFICPPNADDDLLRQIASYGRGYTYLLSRAGVTGAENRAALPLNHLVAKLKEYNAAPPLQEFGISAPDQVKAAIDAGAAGAISGSAIVKIIEQHINEPEKMLAALKVFVQPMKAATRS [G211E] | – | 3 kcal/mol/M and 1.5 kcal/mol/M | 2.73 M and 3.72 M | 8.1 kcal/mol and 5.5 kcal/mol | – | –
MERYESLFAQLKERKEGAFVPFVTLGDPGIEQSLKIIDTLIEAGADALELGIPFSDPLADGPTIQNATLRAFAAGVTPAQCFEMLALIRQKHPTIPIGLLMYANLVFNKGIDEFYAQCEKVGVDSVLVADVPVEESAPFRQAALRHNVAPIFICPPNADDDLLRQIASYGRGYTYLLSRAGVTGAENRAALPLNHLVAKLKEYNAAPPLQWFGISAPDQVKAAIDAGAAGAISGSAIVKIIEQHINEPEKMLAALKVFVQPMKAATRS [G211W] | 1.6 kcal/mol and 1.1 kcal/mol | 1.8 kcal/mol/M and 1.1 kcal/mol/M | 2.25 M and 3.62 M | 4.1 kcal/mol and 3.9 kcal/mol | – | –
MERYESLFAQLKERKEGAFVPFVTLGDPGIEQSLKIIDTLIEAGADALELGIPFSDPLADGPTIQNATLRAFAAGVTPAQCFEMLALIRQKHPTIPIGLLMYANLVFNKGIDEFYAQCEKVGVDSVLVADVPVEESAPFRQAALRHNVAPIFICPPNADDDLLRQIASYGRGYTYLLSRAGVTGAENRAALPLNHLVAKLKEYNAAPPLQRFGISAPDQVKAAIDAGAAGAISGSAIVKIIEQHINEPEKMLAALKVFVQPMKAATRS [G211R] | – | – | – | – | 1.6 kcal/mol/M and 2.2 kcal/mol/M | 1.4 M and 3.28 M
MERYESLFAQLKERKEGAFVPFVTLGDPGIEQSLKIIDTLIEAGADALELGIPFSDPLADGPTIQNATLRAFAAGVTPAQCFEMLALIRQKHPTIPIGLLMYANLVFNKGIDEFYAQCEKVGVDSVLVADVPVEESAPFRQAALRHNVAPIFICPPNADDDLLRQIASYGRGYTYLLSRAGVTGAENRAALPLNHLVAKLKEYNAAPPLQDFGISAPDQVKAAIDAGAAGAISGSAIVKIIEQHINEPEKMLAALKVFVQPMKAATRS [G211D] | 0.3 kcal/mol and 0.8 kcal/mol | 2 kcal/mol/M and 1.2 kcal/mol/M | 2.7 M and 3.61 M | 5.4 kcal/mol and 4.2 kcal/mol | – | –
MERYESLFAQLKERKEGAFVPFVTLGDPGIEQSLKIIDTLIEAGADALELGIPFSDPLADGPTIQNATLRAFAAGVTPAQCFEMLALIRQKHPTIPIGLLMYANLVFNKGIDEFYAQCEKVGVDSVLVADVPVEESAPFRQAALRHNVAPIFICPPNADDDLLRQIASYGRGYTYLLSRAGVTGAENRAALPLNHLVAKLKEYNAAPPLQVFGISAPDQVKAAIDAGAAGAISGSAIVKIIEQHINEPEKMLAALKVFVQPMKAATRS [G211V] | – | 1.9 kcal/mol/M and 1.6 kcal/mol/M | 2.78 M and 4.3 M | 5.4 kcal/mol and 6.9 kcal/mol | – | –
